In patent US20030203373A1 (priority 2002, published 2003):
Values belong to the compound of their own block, whether it stands above or below them.

Legend:
[1] = tested on: normotensive Wister rats; assay: Bradykinin-potentiating effect on blood pressure in anaesthetized normotensive rats; type: in vivo, rat; settings: Captopril 1.5 × 10^−4 M + Bradykinin 2.5 × 10^−6 M
Experimental: In the in vivo experiments with normotensive rats the animals were previously anaesthetized and after blood pressure stabilization treated with a constant amount of bradykinin. Subsequently, either Captopril or human BPP were administered, again followed by a constant amount of bradykinin. Afterwards the maximum blood pressure drop was determined and, on the basis of bradykinin as a factor 1, the potentiating factor was determined. In the same way, the systolic and diastolic blood pressure, the percentage middle pressure decrease and the time required to come back to the baseline values were measured (see tables 4a to 4j). A detailed experimental description is given below.
2. Measurement of Blood Pressure in Normotensive and Hypertensive Rats
The trials were conducted on female anaesthetized normotensive Wister rats with weight ranging from 210 to 240 g.
The peptide pANP48-57 used for the in vivo assays was synthesized by Biosynthan (Berlin) with a HPLC-determined purity of 98%.
Anaesthetizing was performed by i.p.-administration of 1 ml/kg Ketavit (100 mg/ml)+Rampun (2%).
In order to conduct the blood pressure measurement, a polyethylene catheter was introduced into the Aorta femuralis and connected with a pressure transducer. A Statham-P23A pressure-transducer was linked to a Gould Polygraph and used to determine the arterial blood pressure. A Hg-manometer was used to calibrate the system.
All substances were dissolved and diluted in a physiological sodium chloride solution and introduced into the Vena jugularis via a catheter.
After stabilization of blood pressure (after about 10 minutes) […] body weight of a 2,5 μM bradykinin-solution (Sigma) was administered.
The middle pressure was determined from the measured diastolic (pd) and systolic (ps) blood pressure by using the following formula: pm=(ps−Pd)×0,42+pd.

[2] = molecular target: T1, angiotensin-converting-enzyme derived from pig kidney (pig) (UniProt F1RRW5); assay: cell-based or functional assay
T1 sequence (looked up): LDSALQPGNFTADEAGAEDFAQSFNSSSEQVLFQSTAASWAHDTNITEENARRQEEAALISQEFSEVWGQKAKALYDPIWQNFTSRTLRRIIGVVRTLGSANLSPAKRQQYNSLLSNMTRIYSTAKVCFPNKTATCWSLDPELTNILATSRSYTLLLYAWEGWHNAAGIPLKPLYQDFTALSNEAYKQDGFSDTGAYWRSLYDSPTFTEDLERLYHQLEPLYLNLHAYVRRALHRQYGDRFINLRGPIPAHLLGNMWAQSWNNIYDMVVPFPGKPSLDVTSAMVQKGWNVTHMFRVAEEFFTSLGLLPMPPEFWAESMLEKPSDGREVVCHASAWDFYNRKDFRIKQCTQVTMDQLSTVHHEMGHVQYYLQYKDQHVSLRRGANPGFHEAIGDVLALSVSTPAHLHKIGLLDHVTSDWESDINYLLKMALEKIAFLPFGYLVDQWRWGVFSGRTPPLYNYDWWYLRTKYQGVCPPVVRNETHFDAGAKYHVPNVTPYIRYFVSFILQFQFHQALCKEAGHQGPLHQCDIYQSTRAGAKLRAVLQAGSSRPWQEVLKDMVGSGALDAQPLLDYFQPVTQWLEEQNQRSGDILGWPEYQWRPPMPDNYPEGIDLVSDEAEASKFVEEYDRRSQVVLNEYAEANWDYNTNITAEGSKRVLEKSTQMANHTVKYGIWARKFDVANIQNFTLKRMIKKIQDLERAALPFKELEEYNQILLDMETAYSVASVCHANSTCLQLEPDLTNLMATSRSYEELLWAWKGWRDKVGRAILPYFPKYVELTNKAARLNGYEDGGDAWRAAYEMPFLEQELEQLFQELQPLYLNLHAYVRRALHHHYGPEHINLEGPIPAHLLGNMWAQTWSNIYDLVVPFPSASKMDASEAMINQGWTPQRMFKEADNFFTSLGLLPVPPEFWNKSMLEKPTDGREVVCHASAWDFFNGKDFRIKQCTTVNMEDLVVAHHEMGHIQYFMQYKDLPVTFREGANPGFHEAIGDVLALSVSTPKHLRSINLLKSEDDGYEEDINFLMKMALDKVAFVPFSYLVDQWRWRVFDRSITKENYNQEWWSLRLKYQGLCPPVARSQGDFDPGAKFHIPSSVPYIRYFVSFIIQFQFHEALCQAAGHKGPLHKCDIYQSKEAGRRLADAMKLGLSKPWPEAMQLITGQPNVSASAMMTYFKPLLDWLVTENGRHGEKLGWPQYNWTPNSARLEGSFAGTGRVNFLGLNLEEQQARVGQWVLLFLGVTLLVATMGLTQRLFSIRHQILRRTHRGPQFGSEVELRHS

Compound: C[C@H](CS)C(=O)N1CCC[C@H]1C(=O)O [Captopril, reference compound]
potentiating factor (factor by which the blood pressure reducing effect of Bradykinin is potentiated, Bradykinin = 1) [1]: 2
maximal drop of blood pressure ([1]; normotensive rats): 56% ± 17.3

% inhibition at 0.39 µM, A [2]: 10.2%
% inhibition at 0.39 µM, B [2]: 6.82%
% inhibition at 0.39 µM, C [2]: 6.02%
% inhibition at 0.39 µM, D [2]: 0.575%
% inhibition at 0.78125 µM, A [2]: 9.62%
% inhibition at 0.78125 µM, B [2]: 10%
% inhibition at 0.78125 µM, C [2]: 7.72%
% inhibition at 0.78125 µM, D [2]: 10.8%
% inhibition at 1.5625 µM, A [2]: 13.4%
% inhibition at 1.5625 µM, B [2]: 14.9%
% inhibition at 1.5625 µM, C [2]: 9.3%
% inhibition at 1.5625 µM, D [2]: 12.9%
% inhibition at 3.125 µM, A [2]: 21.8%
% inhibition at 3.125 µM, B [2]: 18%
% inhibition at 3.125 µM, C [2]: 16%
% inhibition at 3.125 µM, D [2]: 11.6%
% inhibition at 6.25 µM, A [2]: 31.4%
% inhibition at 6.25 µM, B [2]: 29.2%
% inhibition at 6.25 µM, C [2]: 28%
% inhibition at 6.25 µM, D [2]: 25.7%
% inhibition at 12.5 µM, A [2]: 36.6%
% inhibition at 12.5 µM, B [2]: 36.5%
% inhibition at 12.5 µM, C [2]: 35.3%
% inhibition at 12.5 µM, D [2]: 34.5%
% inhibition at 25 µM, A [2]: 52%
% inhibition at 25 µM, B [2]: 46.2%
% inhibition at 25 µM, C [2]: 49.3%
% inhibition at 50 µM, A [2]: 67.1%
% inhibition at 50 µM, B [2]: 65%
% inhibition at 50 µM, C [2]: 63.6%
% inhibition at 50 µM, D [2]: 56%
% inhibition at 100 µM, A [2]: 79.8%
% inhibition at 100 µM, B [2]: 78.4%
% inhibition at 100 µM, C [2]: 78.4%
% inhibition at 100 µM, D [2]: 78%
% inhibition at 200 µM, A [2]: 89.6%
% inhibition at 200 µM, B [2]: 89.4%
% inhibition at 200 µM, C [2]: 88.5%
% inhibition at 200 µM, D [2]: 88.6%
fluorescence at 0.39 µM, A [2]: 934000
fluorescence at 0.39 µM, B [2]: 969000
fluorescence at 0.39 µM, C [2]: 977000
fluorescence at 0.39 µM, D [2]: 1.03e+06
fluorescence at 0.78125 µM, A [2]: 940000
fluorescence at 0.78125 µM, B [2]: 935000
fluorescence at 0.78125 µM, C [2]: 959000
fluorescence at 0.78125 µM, D [2]: 928000
fluorescence at 1.5625 µM, A [2]: 900000
fluorescence at 1.5625 µM, B [2]: 885000
fluorescence at 1.5625 µM, C [2]: 943000
fluorescence at 1.5625 µM, D [2]: 906000
fluorescence at 3.125 µM, A [2]: 814000
fluorescence at 3.125 µM, B [2]: 853000
fluorescence at 3.125 µM, C [2]: 874000
fluorescence at 3.125 µM, D [2]: 919000
fluorescence at 6.25 µM, A [2]: 715000
fluorescence at 6.25 µM, B [2]: 737000
fluorescence at 6.25 µM, C [2]: 750000
fluorescence at 6.25 µM, D [2]: 773000
fluorescence at 12.5 µM, A [2]: 661000
fluorescence at 12.5 µM, B [2]: 662000
fluorescence at 12.5 µM, C [2]: 674000
fluorescence at 12.5 µM, D [2]: 683000
fluorescence at 25 µM, A [2]: 502000
fluorescence at 25 µM, B [2]: 562000
fluorescence at 25 µM, C [2]: 530000
fluorescence at 25 µM, D [2]: 560000
fluorescence at 50 µM, A [2]: 346000
fluorescence at 50 µM, B [2]: 367000
fluorescence at 50 µM, C [2]: 382000
fluorescence at 50 µM, D [2]: 460000
fluorescence at 100 µM, A [2]: 214000
fluorescence at 100 µM, B [2]: 229000
fluorescence at 100 µM, C [2]: 229000
fluorescence at 100 µM, D [2]: 233000
fluorescence at 200 µM, A [2]: 113000
fluorescence at 200 µM, B [2]: 116000
fluorescence at 200 µM, C [2]: 125000
fluorescence at 200 µM, D [2]: 124000
Compound: Peptid S547 (SPLPEVPP) (peptide)
